Results reported in the DeepSol protein solubility set.

Experiment: soluble on expression in E. coli; label from the status in PepcDB or PDB records

Sequence	soluble on expression in E. coli
MAEARSQPSAGPQLNALPDHSPLLQPGLAALRRRAREAGVPLAPLPLTDSFLLRFLRARDFDLDLAWRLLKNYYKWRAECPEISADLHPRSIIGLLKAGYHGVLRSRDPTGSKVLIYRIAHWDPKVFTAYDVFRVSLITSELIVQEVETQRNGIKAIFDLEGWQFSHAFQITPSVAKKIAAVLTDSFPLKVRGIHLINEPVIFHAVFSMIKPFLTEKIKERIHMHGNNYKQSLLQHFPDILPLEYGGEEFSMEDICQEWTNFIMKSEDYLSSISESIQ	soluble
MAEEQARHVKNGLECIRALKAEPIGSLAIEEAMAAWSEISDNPGQERATCREEKAGSSGLSKPCLSAIGSTEGGAPRIRGQGPGESDDDAETLGIPPRNLQASSTGLQCYYVYDHSGEAVKGIQDADSIMVQSGLDGDSTLSGGDNESENSDVDIGEPDTEGYAITDRGSAPISMGFRASDVETAEGGEIHELLRLQSRGNNFPKLGKTLNVPPPPDPGRASTSGTPIKKGHRREISLIWNGDRVFIDRWCNPMCSKVTLGTIRARCTCGECPRVCEQCRTDTGVDTRIWYHNLPEIPE	not soluble
MAEGDLSFFVMLARRESFSATAQDLGLSASAVSRRLARLEDRLGVRLLNRTTRKVSLTSEGEAYYGAALRLLDEIADLEHNLSQGRDRPAGLLRINATLGFGRTHLAPAIARFRRIHPAVEVQLLLTDAPLNLVEEGIDLGIRFGAPPFGRMVMRLLQRNRRFLCAAPSYLEARGVPQSLTDLQQHSCIVLRQDHDAYDVWRFDDIGEASPSAKVSGELSTNDGEIALAWVLDGQGIMLRSEWDIAQHVREGRLRLLLPHYRQTANIHAIYPERHNLSAKVRVFADHLAAHVRDADARMPLQLAAAELRAATARA	not soluble
MAEGGGGVGVVYVLENEAYLSKEGGTLKVSRRAGREVLLQKPLIAVEEIVILGNAVVTPALLKHCAQEGVGIHYLSPTGTYYAGLTRTPSKNAPARVAQFKAYLEPTWKLALAQRFVLGKIRNGLVFLRRNGAEGWERLKEALLEAERAQDEEALRGAEGRAADLYFRAFAELLPEEFAFGERSRRPPRDPANSLLSLAYTLLAKECESALLVAGLDPYVGYLHEVRYGRPSLALDLMEEFRSVLADSVVLSLLNNRRVTLEDFDDSEGFPRLRKEAWPKFLRAWEGRLNERIQHPLLGKRLAYREILLAQARILVKHLLGELPRYEPFAVR	soluble
MAEHEQVNWPYVNTKLKRDPAVEAQIEKLLAKMTIEQKVAQMIQPEIGYLTVEQMRKYGFGSYLNGGNTAPYGNKRADQATWLKYADEMYLAAMDSTLDGIAIPTVWGTDAMHGHSNVYGATLFPHNIGLGAARDTDLIKRIGQATAKEVAATGIEWSFAPTVAVVRDDRWGRTYESYSEDPDLVKRYAGEMVTGIQGDVGADFLKGSNRIATAKHFVGDGGTERGVDRGNTLIDEKGLRDIHSAGYFSAINQGVQSVMASFNSWNGKRVHGDKHLLTDVLKNQLGFDGFVVSDWNAHKFVEGCDLEQCAQAINAGVDVIMVPEHFEAFYHNTVKQVKAGVIAESRINDAVRRFLRAKIRWGVFTKSKPSARPESQHPQWLGAAEHRTLAREAVRKSLVLLKNNESILPIKASSRILVAGKGANAINMQAGGWSVSWQGTDNTNSDFPNATSIFSGLQSQVTKAGGKITLSESGEYTSKPDVAIVVIGEEPYAEWFGDIELLEFQHETKHALALLKQLKADNIPVVTVFLSGRPLWVNKELNASDAFVAAWLPGSEGEGVADVLLTNKQGKTQFDFTGKLSFSWPKYDDQFTLNLNDADYDPLFAYGYGLTYQDNINVPVLSEKTSPKKTVNSDSHPLFVRSLAKNMTWQLADTSTQKVLASGASATSGDKQSLLMQSVNLSYQEDGRGFNWRAQAALSLSYLEPTPLDSKFSTGYLELKMRIDKAPEQGANLQVMCSESNCLRDIDFSSFSQLMADKSWHTLAIPLHCDDSDQAEQPITDALRITSQNLSLAIADVALTIKPSDDSISLTCAKLEHHHHHH	soluble
MAEIDYKKVTGMIHSTESFGSVDGPGIRFIIFMQGCKMRCQYCHNPDTWEMETNNSKERTVEDVLKEALRYKHFWGKDGGITVSGGEAMLQIDFITALFIEAKKLGIHTTLDTCGFAYRATPEYHAILEKLLDVTDLVLLDLKEIDSEQHKIVTRQSNKNILQFARYLSDRGTPVWIRHVLVPGLTDIDDHLKRLGEFVQTLDNVDKFEVLPYHTMGEFKWRELGIPYPLAGVKPPTPERVKNAKDIMKTESYTEYLKRIQN	soluble
MAEIHYLISDASKKVDVEAHVLRYWEEELELPIPRNDMGHRYYTDFHIRLFKQVKVLKEKGYQLKAIKTALAKSLQDGKVIIPSEVLEEDVIAALKETGIGEQDMKEQKGNENKNGEKRADEKVKDGQACEGGGEAGLTALDKDSVEALLAGEKMEQFQKVMNHIIGRAMEENSEKLSQDISYLVHDKLMKEMEYLMRVSDEREEERFKQLDEVIRAYQRDNQGRAEAAASVTGFPFFRFKKKKFGRNGNKL	not soluble
MAEKNHQQQERLPGNPFFPSRSNAGSSFDMPETPHLIDSLTSQIDEFTIQSIIDTQRQSLKRFEKTNEMLMNCAQLGDRRIEKAKRDSVGHKETILQMKTDLEFIFKKIRMFKTVLSSKYPEVYAEVSAELTPKRSEEDE	not soluble
MAEMGSKGVTAGKIASNVQKKLTRAQEKVLQKLGKADETKDEQFEQCVQNFNKQLTEGTRLQKDLRTYLASVKAMHEASKKLNECLQEVYEPDWPGRDEANKIAENNDLLWMDYHQKLVDQALLTMDTYLGQFPDIKSRIAKRGRKLVDYDSARHHYESLQTAKKKDEAKIAKAEEELIKAQKVFEEMNVDLQEELPSLWNSRVGFYVNTFQSIAGLEENFHKEMSKLNQNLNDVLVGLEKQHGSNTFTVKAQPSDNAPAKGNKSPSPPDGSPAATPEIRVNHEPEPAGGATPGATLPKSPSQSSLPAVVVETFPATVNGTVEGGSGAGRLDLPPGFMFKVQAQHDYTATDTDELQLKAGDVVLVIPFQNPEEQDEGWLMGVKESDWNQHKELEKCRGVFPENFTERVP	soluble
MAEMTEMQVHEERVMNLVESSSGTPTITPLTKTNAHRAESIRRIGTDKDAVAFHFRKKSTGMYMYIHTYTENGEEKELRASDFKNWEVTEFKYPGYLEELEEIAVNAYRWNSHDPETRAETDIMGYEKQLHEDLKKIPEAKKRITSILTKVKYPFYSTASHAAQTRW	not soluble
MAFEFKLPDIGEGIHEGEIVKWFVKPGDEVNEDDVLCEVQNDKAVVEIPSPVKGKVLEILVPEGTVATVGQTLITLDAPGYENMTFKGQEQEEAKKEEKTETVSKEEKVDAVAPNAPAAEAEAGPNRRVIAMPSVRKYAREKGVDIRLVQGTGKNGRVLKEDIDAFLAGGAKPAPAAAEEKAAPAAAKPATTEGEFPETREKMSGIRRAIAKAMVHSKHTAPHVTLMDEADVTKLVAHRKKFKAIAAEKGIKLTFLPYVVKALVSALREYPVLNTSIDDETEEIIQKHYYNIGIAADTDRGLLVPVIKHADRKPIFALAQEINELAEKARDGKLTPGEMKGASCTITNIGSAGGQWFTPVINHPEVAILGIGRIAEKPIVRDGEIVAAPMLALSLSFDHRMIDGATAQKALNHIKRLLSDPELLLMEA	soluble
MAFLRSMWGVLSALGRSGAELCTGCGSRLRSPFSFVYLPRWFSSVLASCPKKPVSSYLRFSKEQLPIFKAQNPDAKTTELIRRIAQRWRELPDSKKKIYQDAYRAEWQVYKEEISRFKEQLTPSQIMSLEKEIMDKHLKRKAMTKKKELTLLGKPKRPRSAYNVYVAERFQEAKGDSPQEKLKTVKENWKNLSDSEKELYIQHAKEDETRYHNEMKSWEEQMIEVGRKDLLRRTIKKQRKYGAEEC	soluble
MAFPFDILHLEIIRSTLESEKDRCEAKEKFGTIIDNLNGPADIEKYESLVQKAFLHANAETKLESIGFRVGRQLVEKVSKESPKLVTELEIVKFICKDFWSSVFGKQVDNLRTNHQGVYVVQDGRFTTLRSFPEGDQYVKESGYFLAFPCGLLRGALAGLNIRAIVTPTIESVPSVKFHIQVQPK	not soluble
MAFRSKFAVLDESWTYVRVRRGPRRQNLWIWNALIDGVPFFVTGDRDYNTFRLLWLSLPKCEVHYTDDYPIYQVLYHHVVGKKYTHTVESYNSFCRSHLVRLARDTKAVNRSRAMIDYSLDLLNVMYPQLEHHHHHH	not soluble
